Data as given in doi:10.1101/188136 (bioRxiv, 2017).

Biological target: the molecule itself
Assay: crystal structure

B1: BrlR (transcriptional regulator BrlR from Pseudomonas aeruginosa) (natural protein, UniProt Q9HUT5 1-270, looked up)
chain: MLTIGQLARIFEISTKTLRHYDAIGLFVPARTGSDNGYRYYQPEQIEQLSRILALRRLDVPLEAIDRLKRDGALDDPQRLRHFLQRHQHTLREEISARQRLLAELDRTLATLAHWRIRNMHARIVERPAFSVVGMEYFGSAPGDTIGQLWERFIPREHEIAGKHDPEVSYGICAQQPNGEFHYVAGFEVQEGWPVPEGMVRFQVPAQKYAVFTHKGTAPQIAESFQAIYSHLLAERGLEPKAGVDFEYYDQRFRGPLDPNSQVDLYIPIY
**Q.** How did the “stoichiometry N” value turn out when B1 was run?
**A.** 4
